Results published in patent US20030162228A1 (Chugai, published 2003).
Where two headings read alike, the source gives them in different places. Where no end group is shown, it is not given here.

How the values were obtained:
[1] = target: T1, recombinant human TAK1-6×His polypeptide (human, UniProt O43318 1-606); assay: competition ELISA on plate-immobilised TAK1-6×His; the blocked ligand is MBP-TAB1C-FLAG at a fixed amount
T1 construct: also called human TAK1-6xHis; recombinant TAK1 polypeptide
T1 sequence: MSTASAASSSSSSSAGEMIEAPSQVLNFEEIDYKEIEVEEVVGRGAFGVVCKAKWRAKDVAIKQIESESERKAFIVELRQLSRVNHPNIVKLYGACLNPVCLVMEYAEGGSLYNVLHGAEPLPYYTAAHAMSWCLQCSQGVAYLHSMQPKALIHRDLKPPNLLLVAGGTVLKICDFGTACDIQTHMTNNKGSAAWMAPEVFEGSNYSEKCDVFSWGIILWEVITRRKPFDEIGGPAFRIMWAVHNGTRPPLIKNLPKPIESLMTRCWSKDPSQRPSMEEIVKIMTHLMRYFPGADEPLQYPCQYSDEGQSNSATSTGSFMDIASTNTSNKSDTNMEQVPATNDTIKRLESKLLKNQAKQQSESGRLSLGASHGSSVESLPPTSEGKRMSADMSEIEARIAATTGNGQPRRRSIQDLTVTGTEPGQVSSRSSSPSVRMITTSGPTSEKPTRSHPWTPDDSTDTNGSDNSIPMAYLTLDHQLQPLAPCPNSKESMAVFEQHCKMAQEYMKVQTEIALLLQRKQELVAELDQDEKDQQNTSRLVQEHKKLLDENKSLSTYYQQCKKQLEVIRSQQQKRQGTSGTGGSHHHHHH
Excerpt: In a similar manner to that in the above 5-1 (2), the recombinant human TAK1-6×His polypeptide was immobilized and was blocked.

[2] = target: T2, TAK1 expressed from yeast 2-hybrid expression vector pBTMHu11F (Homo sapiens (Human), UniProt O43318 1-606); assay: cell-based or functional assay
T2 sequence: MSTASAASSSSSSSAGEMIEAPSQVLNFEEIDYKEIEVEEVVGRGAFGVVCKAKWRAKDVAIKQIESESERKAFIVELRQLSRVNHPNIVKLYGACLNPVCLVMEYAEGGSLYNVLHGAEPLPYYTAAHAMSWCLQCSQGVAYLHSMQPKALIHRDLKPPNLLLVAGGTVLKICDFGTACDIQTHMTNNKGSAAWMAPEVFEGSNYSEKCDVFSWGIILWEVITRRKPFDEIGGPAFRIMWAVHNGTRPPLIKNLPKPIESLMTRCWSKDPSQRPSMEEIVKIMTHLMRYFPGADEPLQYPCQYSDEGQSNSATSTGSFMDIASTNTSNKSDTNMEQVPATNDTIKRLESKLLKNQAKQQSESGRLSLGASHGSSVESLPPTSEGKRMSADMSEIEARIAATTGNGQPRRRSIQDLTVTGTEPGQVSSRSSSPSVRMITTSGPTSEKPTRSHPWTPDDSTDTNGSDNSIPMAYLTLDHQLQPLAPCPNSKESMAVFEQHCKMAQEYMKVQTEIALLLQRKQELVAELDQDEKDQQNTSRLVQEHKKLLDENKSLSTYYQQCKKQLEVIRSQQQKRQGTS

[3] = target: T2, TAK1 expressed from yeast 2-hybrid …; assay: cell-based or functional assay; remark: listed apart in the source
[4] = target: TAB1 polypeptide of mink pulmonary epithelial cell line Mv1Lu (endogenous) (mink); assay: cell-based or functional assay
[5] = target: T3, TAB1 polypeptide of human fibroblast-derived HT-1080 cells (endogenous) (human, UniProt Q15750 1-504, limits assumed); assay: cell-based or functional assay
T3 sequence (looked up): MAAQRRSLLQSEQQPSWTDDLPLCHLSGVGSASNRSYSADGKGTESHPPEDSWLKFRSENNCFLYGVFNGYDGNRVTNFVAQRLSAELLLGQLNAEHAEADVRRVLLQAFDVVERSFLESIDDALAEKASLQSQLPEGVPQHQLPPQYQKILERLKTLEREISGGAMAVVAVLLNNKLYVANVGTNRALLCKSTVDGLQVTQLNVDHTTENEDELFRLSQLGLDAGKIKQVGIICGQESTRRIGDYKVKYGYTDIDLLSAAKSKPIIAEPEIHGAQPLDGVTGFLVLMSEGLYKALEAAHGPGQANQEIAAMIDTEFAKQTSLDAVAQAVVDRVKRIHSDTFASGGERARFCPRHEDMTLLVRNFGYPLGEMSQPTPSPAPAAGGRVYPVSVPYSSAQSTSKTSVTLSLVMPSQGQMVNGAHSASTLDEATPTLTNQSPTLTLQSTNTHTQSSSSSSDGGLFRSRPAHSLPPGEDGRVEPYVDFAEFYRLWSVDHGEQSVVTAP

[6] = target: T4, TAB1 polypeptide of mouse kidney mesangial cell line SV40MES13 (endogenous) (mouse, UniProt Q8CF89 1-502, limits assumed); assay: cell-based or functional assay
T4 sequence (looked up): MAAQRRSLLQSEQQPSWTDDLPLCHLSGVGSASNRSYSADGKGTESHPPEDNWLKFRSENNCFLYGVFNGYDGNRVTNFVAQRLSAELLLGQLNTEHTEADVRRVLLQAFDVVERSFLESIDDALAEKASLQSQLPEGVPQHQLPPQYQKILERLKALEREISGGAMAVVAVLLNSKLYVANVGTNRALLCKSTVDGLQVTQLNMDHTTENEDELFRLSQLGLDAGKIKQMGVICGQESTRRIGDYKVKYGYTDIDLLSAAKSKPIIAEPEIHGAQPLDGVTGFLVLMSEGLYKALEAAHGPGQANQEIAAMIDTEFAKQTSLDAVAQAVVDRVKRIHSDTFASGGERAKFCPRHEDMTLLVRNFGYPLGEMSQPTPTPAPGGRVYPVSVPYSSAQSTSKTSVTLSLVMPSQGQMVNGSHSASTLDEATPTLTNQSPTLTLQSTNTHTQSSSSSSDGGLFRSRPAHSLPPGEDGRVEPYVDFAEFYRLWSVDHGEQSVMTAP

[7] = target: T2, TAK1 expressed from yeast 2-hybrid …; assay: cell-based or functional assay; remark: listed apart in the source

B1: recombinant human TAB1-FLAG polypeptide (other)
chain: MAAQRRSLLQSEQQPSWTDDLPLCHLSGVGSASNRSYSADGKGTESHPPEDSWLKFRSENNCFLYGVFNGYDGNRVTNFVAQRLSAELLLGQLNAEHAEADVRRVLLQAFDVVERSFLESIDDALAEKASLQSQLPEGVPQHQLPPQYQKILERLKTLEREISGGAMAVVAVLLNNKLYVANVGTNRALLCKSTVDGLQVTQLNVDHTTENEDELFRLSQLGLDAGKIKQVGIICGQESTRRIGDYKVKYGYTDIDLLSAAKSKPIIAEPEIHGAQPLDGVTGFLVLMSEGLYKALEAAHGPGQANQEIAAMIDTEFAKQTSLDAVAQAVVDRVKRIHSDTFASGGERARFCPRHEDMTLLVRNFGYPLGEMSQPTPSPAPAAGGRVYPVSVPYSSAQSTSKTSVTLSLVMPSQGQMVNGAHSASTLDEATPTLTNQSPTLTLQSTNTHTQSSSSSSDGGLFRSRPAHSLPPGEDGRVEPYVDFAEFYRLWSVDHGEQSVVTAPGTGGSDYKDDDDK
notes: Made in Sf9 cells with baculovirus and purified on anti-FLAG M2 gel
Question: Which “IC50 (read off the curve)” value [1] does the source give for B1 here?
Answer: Its value is about 1 µg/well.

B2: TAB1C68, fusion with the GAL4 transcription activated domain (pGAD-TAB1) (other, not shown: large carriers)
chain: QSPTLTLQSTNTHTQSSSSSSDGGLFRSRPAHSLPPGEDGRVEPYVDFAEFYRLWSVDHGEQSVVTAP
Question: For B2, which “ratio of the β-galactosidase activity to that of TAB1C68 (yeast 2-hybrid)” value [2] is on record?
Answer: Its value is 1.

Question: And the “ratio of the β-galactosidase activity to that of TAB1C68 (yeast 2-hybrid)” value [3]?
Answer: Its value is 1.

B3: TAB1C45, fusion with the GAL4 transcription activated domain (pGAD-TAB1C45) (other, not shown: large carriers)
chain: GLFRSRPAHSLPPGEDGRVEPYVDFAEFYRLWSVDHGEQSVVTAP
modifications: also: fusion with GAL4 transcription activation domain
Question: What does the source list for B3?
Answer: ratio of the β-galactosidase activity to that of TAB1C68 (yeast 2-hybrid) [2]: 1.19; ratio of the β-galactosidase activity to that of TAB1C68 (yeast 2-hybrid) [3]: 1.31

B4: TAK1-DN (expressed from pTAK1DN) (other)
chain: MELRQLSRVNHPNIVKLYGACLNPVCLVMEYAEGGSLYNVLHGAEPLPYYTAAHAMSWCLQCSQGVAYLHSMQPKALIHRDLKPPNLLLVAGGTVLKICDFGTACDIQTHMTNNKGSAAWMAPEVFEGSNYSEKCDVFSWGIILWEVITRRKPFDEIGGPAFRIMWAVHNGTRPPLIKNLPKPIESLMTRCWSKDPSQRPSMEEIVKIMTHLMRYFPGADEPLQYPCQ
Question: What does the source list for B4?
Answer: fold increase of PAI-1 in the culture supernatant on TGF-β1 addition, Mv/DN2 cells (control cells about 16-fold) [4]: ~4.3 fold; fold increase of fibronectin in the culture supernatant on TGF-β addition, HT/DN2 cells (control HT/NEO about 6.1 fold) [5]: ~2.6 fold; fold increase of fibronectin in the culture supernatant on TGF-β addition, HT/DN14 cells (control HT/NEO about 6.1 fold) [5]: ~3 fold; fold increase of fibronectin in the extracellular matrix extract on TGF-β addition, HT/DN2 cells (control HT/NEO about 11.4 fold) [5]: ~3.5 fold; fold increase of fibronectin in the extracellular matrix extract on TGF-β addition, HT/DN14 cells (control HT/NEO about 11.4 fold) [5]: ~3.6 fold; fold increase of fibronectin in the culture supernatant on TGF-β addition, MES/DN3 cells (control MES/NEO about 3.3 fold) [6]: ~2.4 fold; fold increase of fibronectin in the culture supernatant on TGF-β addition, MES/DN6 cells (control MES/NEO about 3.3 fold) [6]: ~2.3 fold; fold increase of fibronectin in the extracellular matrix extract on TGF-β addition, MES/DN3 cells (control MES/NEO about 3.8 fold) [6]: ~2.6 fold; fold increase of fibronectin in the extracellular matrix extract on TGF-β addition, MES/DN6 cells (control MES/NEO about 3.8 fold) [6]: ~2.1 fold; fold increase of type I collagen in the culture supernatant on TGF-β addition, MES/DN3 cells (control MES/NEO about 3.6 fold) [6]: ~2 fold; fold increase of type I collagen in the culture supernatant on TGF-β addition, MES/DN6 cells (control MES/NEO about 3.6 fold) [6]: ~2 fold; fold increase of type IV collagen in the culture supernatant on TGF-β addition, MES/DN3 cells (control MES/NEO about 2.0 fold) [6]: ~1.5 fold; fold increase of type IV collagen in the culture supernatant on TGF-β addition, MES/DN6 cells (control MES/NEO about 2.0 fold) [6]: ~1.4 fold

B5: TAB1C25, fusion with the GAL4 transcription activated domain (pGAD-TAB1C25) (other, not shown: large carriers)
chain: PYVDFAEFYRLWSVDHGEQSVVTAP
modifications: also: fusion with GAL4 transcription activation domain
Question: B5 was tested. Which “β-galactosidase activity of yeast L40 (yeast 2-hybrid), ratio based on TAB1C68” value [7] did it give?
Answer: Its value is 0.28 ratio to TAB1C68.
